The target of series [1] is T1, FadR_ec (Escherichia coli (K-12), UniProt P0A8V6 1-239). The series can be described thus: EMSA; 5 pmol protein, 0.2 pmol probe; EMSA: Roche binding buffer, 20 min, room temperature, 0.2 pmol DIG probe (10 uL in Fig. 6), 7% native PAGE; SPR: Biacore3000, 20 mM Tris-HCl pH 7.5, 200 mM NaCl.
Series [2] has as its target T2, FadR_she (Shewanella oneidensis, UniProt Q8ED80 1-240). The description is as above.
The next series deals with FadR_vc (Vibrio cholerae, UniProt Q9KQU8 1-279). The series can be described thus: EMSA; 5 pmol protein; super-shifted band attributed to multimer; EMSA: Roche binding buffer, 20 min, room temperature, 0.2 pmol DIG probe (10 uL in Fig. 6), 7% native PAGE; SPR: Biacore3000, 20 mM Tris-HCl pH 7.5, 200 mM NaCl.
Series [3] concerns the molecule itself. The series can be described thus: SEC; Superdex 75 column on an Akta FPLC, 0.35 mL/min, 20 mmol/L Tris-HCl, 50 mmol/L NaCl, pH 7.9; peak at 10.5 mL, between the 44 kDa and 67 kDa standards.
Series [4] deals with T2, FadR_she. The series is described as follows: SPR; 2:1 (FadR dimer per DNA); EMSA: Roche binding buffer, 20 min, room temperature, 0.2 pmol DIG probe (10 uL in Fig. 6), 7% native PAGE; SPR: Biacore3000, 20 mM Tris-HCl pH 7.5, 200 mM NaCl.
The target of series [5] is T1, FadR_ec. The series can be described thus: EMSA; C10:0-CoA ~50 pmol; EMSA: Roche binding buffer, 20 min, room temperature, 0.2 pmol DIG probe (10 uL in Fig. 6), 7% native PAGE; SPR: Biacore3000, 20 mM Tris-HCl pH 7.5, 200 mM NaCl.

T1 sequence (P0A8V6 whole entry): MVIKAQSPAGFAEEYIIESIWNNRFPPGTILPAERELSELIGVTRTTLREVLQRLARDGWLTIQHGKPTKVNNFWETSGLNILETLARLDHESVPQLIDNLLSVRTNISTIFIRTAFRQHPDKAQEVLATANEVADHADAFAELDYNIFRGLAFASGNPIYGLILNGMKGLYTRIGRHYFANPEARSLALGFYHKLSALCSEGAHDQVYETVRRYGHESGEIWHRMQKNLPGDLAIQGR
Chain of FadR_vc (Q9KQU8 whole entry): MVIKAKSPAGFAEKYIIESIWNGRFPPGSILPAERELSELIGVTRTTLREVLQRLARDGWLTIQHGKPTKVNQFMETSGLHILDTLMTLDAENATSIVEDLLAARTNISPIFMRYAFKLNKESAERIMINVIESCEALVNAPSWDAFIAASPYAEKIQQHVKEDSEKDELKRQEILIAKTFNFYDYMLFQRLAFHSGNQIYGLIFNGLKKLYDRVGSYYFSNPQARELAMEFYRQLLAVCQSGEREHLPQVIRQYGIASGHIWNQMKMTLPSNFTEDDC

B1: fabB_ec probe (dsDNA)
DNA 1: TCTATTAAATGGCTGATCGGACTTGTTCGGCGTACAAGTGTACGCTATTGTGCATTC
DNA 2: GAATGCACAATAGCGTACACTTGTACGCCGAACAAGTCCGATCAGCCATTTAATAGA
Regarding B1, the binding result with FadR_ec [1], in the series with FadR_she [2] and with FadR_vc was “binds” throughout.

B2: fabA_ec probe (dsDNA)
DNA 1: TTTATTCCGAACTGATCGGACTTGTTCAGCGTACACGTGTTAGCTATCCTGCGTGC
DNA 2: GCACGCAGGATAGCTAACACGTGTACGCTGAACAAGTCCGATCAGTTCGGAATAAA
In the case of B2, the binding result with FadR_ec [1], in the series with FadR_she [2] and in the series with FadR_vc was “binds” throughout.

B3: Shewanella oneidensis FadR protein (natural protein, Shewanella oneidensis MR-1, UniProt Q8ED80 1-240, looked up)
chain: MIINAKGPASFAEKYIVRSIWENKFPPGSILPAERELSELIGVTRTTLREVLQRLARDGWLKIQHGKPTRVNNFWETSGLNILETIADLNPEGFPVLVDQLLSARTNVSAIYFRGALRNNPDTAMEVLAQIHQLEDTAESFAEYDYLLHHTLAFSSGNPLYVLILNGFKGLYSRVGRYYFSSSEARQLALNFYKELELLAKAKNYLDVPALMRTYGINSGKMWLQLRDDMPSSIAQQDSH
With B3, the “stoichiometry N” value in series [3] was determined as 2.

B4: fabA_she probe, biotinylated (dsDNA)
DNA 1: GACATTAATTAGCTGATCGGAGTTGTTTAGCTTACACGTGTTCGCTAATCTTGGCG
DNA 2: CGCCAAGATTAGCGAACACGTGTAAGCTAAACAACTCCGATCAGCTAATTAATGTC
Turning to B4, the Kd in the series with FadR_she [4] is ~436 nM.

B5: fabA_she probe (dsDNA)
DNA 1: GACATTAATTAGCTGATCGGAGTTGTTTAGCTTACACGTGTTCGCTAATCTTGGCG
DNA 2: CGCCAAGATTAGCGAACACGTGTAAGCTAAACAACTCCGATCAGCTAATTAATGTC
B5: in the series with FadR_ec [5], the binding result is on record as “binds”.
